Experiments:
E1 domain of human APLP1 = biological target: T1, E1 domain of human APLP1 (human, UniProt P51693 50-212, biotin (EZ-Link NHS-PEG4-Biotin, 1:1 molar ratio) where immobilised in BLI); assay: BLI
T1 chain: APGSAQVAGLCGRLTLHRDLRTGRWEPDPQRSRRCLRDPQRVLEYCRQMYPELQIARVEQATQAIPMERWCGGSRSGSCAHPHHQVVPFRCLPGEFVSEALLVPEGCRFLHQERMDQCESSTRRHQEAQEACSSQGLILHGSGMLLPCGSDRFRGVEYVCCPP

E1 domain of chicken APP = biological target: T2, E1 domain of chicken APP (chicken, biotin (EZ-Link NHS-PEG4-Biotin, 1:1 molar ratio) where immobilised in BLI); assay: BLI
T2 chain: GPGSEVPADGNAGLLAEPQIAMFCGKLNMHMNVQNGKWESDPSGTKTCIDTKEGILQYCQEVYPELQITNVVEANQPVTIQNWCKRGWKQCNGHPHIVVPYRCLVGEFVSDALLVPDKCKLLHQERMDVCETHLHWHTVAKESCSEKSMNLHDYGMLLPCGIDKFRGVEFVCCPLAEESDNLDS

Binder	Kd (E1 domain of human APLP1)	Kd (E1 domain of chicken APP)
FN1–FN3 region of CNTN3 titrated against human APLP1(E1) (domain or fragment) PPENVKVDEITDTTAQLSWKEGKDNHSPVISYSIQARTPFSVGWQTVTTVPEVIDGKTHTATVVELNPWVEYEFRVVASNKIGGGEPSLPSEKVRTEEAVPEVPPSEVNGGGGSRSELVITWDPVPEELQNGEGFGYVVAFRPLGVTTWIQTVVTSPDTPRYVFRNESIVPYSPYEVKVGVYNNKGEGPFSPVTTVFSAEEEPTVAPSQVSANSLSSSEIEVSWNTIPWKLSNGHLLGYEVRYWNGGGKEESSSKMKVAGNETSARLRGLKSNLAYYTAVRAYNSAGAGPFSATVNVTTKKT	9.1 µM	–
FN1–FN3 region of chicken CNTN4, T751A and V752A (domain or fragment) GSTGSPPGPPEDVTIDEITDTTAQLSWRPGADNHSPITMYVVQARTPFSVGWQAVSTVPEVIDGKTFTATVVGLNPWVEYEFRVVAANLIGIGEPSRPSENRRTEEALPEVTPANVSGGGGSKSELVITWETVPEELQNGGGFGYVVAFRPFGTISWMQAAVASPDASRYVFRNESLPPFSPYEVKVGVYNNKGEGSFSPVTVVYSAEEEPTRAPITVLARSLSATDIEISWAPPRENQHKGRIQGYEVRCWRHDEKEENARKIRTVGNQTSAKVTNLQGNALYHLAVKAYNTAGTGPSSAMVNVTTKK	–	20.9 µM
FN1–FN3 region of CNTN5 titrated against human APLP1(E1) and human APLP2(E1) (domain or fragment) PPGIVIVEEITESTATLSWSPAADNHSPISSYNLQARSPFSLGWQTVKTVPEIITGDMESAMAVDLNPWVEYEFRVVATNPIGTGDPSTPSRMIRTNEAVPKTAPTNVSGRSGRRHELVIAWEPVSEEFQNGEGFGYIVAFRPNGTRGWKEKMVTSSEASKFIYRDESVPPLTPFEVKVGVYNNKGDGPFSQIVVICSAEGEPSAAPTDVKATSVSVSEILVAWKHIKESLGRPQGFEVGYWKDMEQEDTAETVKTRGNESFVILTGLEGNTLYHFTVRAYNGAGYGPPSSEVSATTKKS	10.9 µM	–
